Data from patent US20240239891A1 (Stanford University, published 2024).

Columns and labels:
[1] = molecular target: T1, extracellular domain (ECD) of human GODZILLA (RNF167) (human, UniProt Q9H6Y7 25-173, limits assumed); assay: SPR (Biacore), titration at equilibrium, nanobody on ECD
T1 construct: extracellular domain; also called GODZILLA ECD

[2] = molecular target: T2, extracellular domain (ECD) of human GRAIL (RNF128) (human, UniProt Q8TEB7 39-207, limits assumed); assay: SPR (Biacore), ligand hRNF128 ECD (GRAIL), analyte GODZILLA-A5 [CONT. 3]
T2 construct: extracellular domain; also called GRAIL ECD
T2 sequence (looked up): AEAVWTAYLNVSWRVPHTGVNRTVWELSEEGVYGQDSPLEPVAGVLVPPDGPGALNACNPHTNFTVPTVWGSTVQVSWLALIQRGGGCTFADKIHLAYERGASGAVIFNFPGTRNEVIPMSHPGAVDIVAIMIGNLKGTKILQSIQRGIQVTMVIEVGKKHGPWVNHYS

[3] = molecular target: GODZILLA (RNF167) on Ba/F3 cells (mouse, UniProt Q91XF4); assay: flow cytometry, surface staining of Ba/F3 cells (mouse by legend paragraph 54, sheet prints HUMAN) with streptavidin-APC tetramerized nanobody, titration up to 200 nM; control BIOTIN

Kd [1]: 3 nM
binding result [3]: binds
B1: GODZILLA (RNF167) VHH of SEQ ID NO: 9 (VHH)
VHH: QVQLQESGGGLVQAGGSLRLSCAASGSIFRLWYMGWYRQAPGKEREFVASIGIGATTNYADSVKGRFTISRDNAKNTVYLQMNSLKPEDTAVYYCAVFGWAYSGYHDDFLYWGQGTQVTVSS
notes: also called A5; GODZILLA-A5
binding result [2]: no binding (tested: 1000 (unit not printed))
